The text below walks through data of PMC4877600.

This data set deals with human immunoglobulin E (IgE) (Homo sapiens). Nature of the data set: fluorescence bead-binding assay (thermal elution). The conditions noted are these: IgE on beads; selection buffer as printed: 44.5 mM Tris base, 44.5 mM bisboronic acid (sic), 50 mM NaCl, pH 8.5; 0-100 nM DNA, room temperature, 2 h; IgE beads 3x10^4 per ….

Sequence “GCCTGTTGTGAGCCTCCTGTCGAAACTAGACCGGGAGCAAAACGGCAGATTGGGGCAAGGCCGGTTGAGCGTTTATTCTTGTCTCCC [SIGE7]” yielded a Kd of 18 nM.
The value for “GCCTGTTGTGAGCCTCCTGTCGAAGATGTAGGCCATCCTGTGGGGGTACGGGGCGGGCTGTGGTTTGAGCGTTTATTCTTGTCTCCC [SIGE5]” was 10 nM.

What is called Kd is the concentration at which binding is half-saturated.
